Test: yeast display, Sf9 membrane polyspecificity reagent, FACS + sequencing; frameworks hold sequencing errors
Method in brief: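 Synthetic nanobody libraries on Saccharomyces cerevisiae BJ5465 were galactose-induced for 36–48 hours, stained 1 hour at 4 °C with 10% biotinylated, detergent-solubilized Sf9 membrane reagent and enriched on streptavidin microbeads. FACS then separated cells into low and high (top ~1%) gates by anti-HA (expression) and streptavidin (reagent binding) fluorescence. Genes were colony-PCR amplified, MiSeq 2 × 250 sequenced and CDR-length filtered. A clone's polyreactivity label is that of its gate of origin.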

| Sequence | polyreactivity (PSR sort gate) |
| --- | --- |
| QVQLVESGGGLVQAGGSLRLSCAASGYIFIGYAMGWYRQAPGKERELVTYADSVKGRFTISRDNAKNTVYFQMNSRKPEDTAVYYCNKVPRRFSGLDENYWGQGTQVTVSS | low polyreactivity |
| QVQLVESGGGLVQAGGSLRLSCAASGRIINYNARGWYRQAPGKERELVAAISSSGGSTYYADSVKGRFTISRDNAKNTVYLQMNSLKPEDTAVYYCNALGTTEYWSRDDYWGQGTQVTVSS | low polyreactivity |
| QVQLVESGGGLVQAGGSLRLICAASGRIFLENALGWYRQAPGKERELVATISNGGSTSYADSVKGRFTISRDNAKNKVYLQMISLKPEDTSVYYCAADYCWPYILYGYDYWGEGTQVTVSS | low polyreactivity |
| QVQLVESGGGLVQAGGSLRLSCAASGSIFYTNAMGWYRQAPGKERELVAAITGGGRTNYADSLKGRFTISRDNAKNTVYLQMNSLKPEDNAVYYCAARTGYRYYTGDYWGQGTQVTVSS | high polyreactivity |
| QVQLVESGRGLVQAGGSLRLSCAASGRIFGVYGRGWYRQAPGKERELVAAISWSGATTYYADSVKGRFTISRDNAKNTVYLQMHSLKPEDTAVYYCAADFGWFYDGVAVWFIRILGDYWGQGTQVTVSS | low polyreactivity |
| QVQLVESGGGLVQAGGSLRLSGDASGRIFRLYAMGWYRQAPGKEREFVAAISRSGGRTYYADSVKGRFTISRDNAKNTVYLQMNSLKPEDTAVYYCAAVYRQCGDYYSRDYYWGQGTQVTVSS | high polyreactivity |
| QVQLVESGGGLVQAGGSLRLTCAASGYTFVIYSMVWYRQAPGKVRELVAAITTIGGRTYYADSVKGRFTISRDNAKNTVYLQMNSLKPEDTAVYYCAADIRSNRLYDGGYWRQGTQVTVSS | low polyreactivity |
| QVQLVESGGGLVQAGGSLRLSCAASGRIFKRNTMGWYRQAPGKERELVAAITYSGITYYADSVKGRFTISRDNAKNTVYLQMNSLKPEDTAVYYCAKVLYPIGSPRFEYWGQGTQVTVSS | low polyreactivity |
| QVQHVESGGGLVQAGGSLSLSCADSGITFYRYAMGCDRQAPAKERELVDRISQIGGSTYYADSVKGRFTISRDNAKNTVYLQMNSLKPEDTAVYYCNARVRYSTVTYLRKYYYWGQGTQVTVSS | high polyreactivity |
| QVQLVESGGGLVQAGGSLRLSCAASGSTFGRYAMGWYRQAPGKERELVARISWGGGSTYYADSVKGRFTISRDNAKNTVYLQMNSLKPEDTAVYYCATRVYRSAVSYDYWGQGTQVTVSS | high polyreactivity |
| QVQLVESGGGLVPAGGSLRLSCAASGRIFFRNAMGWYRQAPGKERELVAAITYSGGSTYYADSVKGRFTISRDNAKNTVYLQMNSLKPEDTAVSYCAAGYWFSYSRVTRYDYWGQGTQVTVSS | high polyreactivity |
| QVQLVESGGGLVQAGGRLRLSCAASGITYEPYAMGWYRQAPGKERELVAAISRSGGSTYYADSVKGRFTISRDNAKNTVYLQMNSLKPVDTAVYYCNALRGTASRRGYYWGQGTQVTVSS | high polyreactivity |
| QVQLVESGGGLVLAGGSLRLTWAASGSIFHYYAMGWYRQAPGKERELVAAISWSGGRTYYADSVKGRFTISRDNAKNTVYLEMNSLKPEDTAVYFCAADTYPYIGGYYWGQGTQVTVSS | high polyreactivity |
| QVQLVESGGGLVQAGGSLRLSCAASGSTFRGNAMGWYRQAPGKERELVASITGGGSTNYADSVKGRFTISRDNAKNTVYLQMNSLKPEDTAVYYCAADWGADFYGGQGTQVTVSS | low polyreactivity |
| QVQLVESGGGLVQAGGSLRLSCAASGIIFARNGMGWYRPAPGKERELVAAISSGGRKYYADSVKGRFTISRDNAKNTVYLQMNSLKPEDTAVYYCNALGWYLRGDYWGQGTQVTVSS | high polyreactivity |
| QVQLVESGGGLVQAGGSLRLSCAASGSIFGGNTMGWYRKAPGKERELVAAITNGGRTNYADSVKGRFTISRDNAKNTVYLQMNSLKPEDTAVYYCNAVTYSRRYAYYYWGQGTQVTVSS | high polyreactivity |
| QLQHVESGGGLVQAGGSLRLTCAASGRTFGYYAMGWYRQAPGKERELVAAITSGGRTYYADSVKGRFTISRDNAKNTVYLQMNSLKPEDTAVYYCNAPPRWCSRVAWYEYWGQGTQVTVSS | high polyreactivity |
| QVQLVESGGGLLQAGGSRRLSCAASGRTFYSYGMGWYRRAPGKERELVARNTWSGGTYYADSVKGRFTISRDNAKNTVYLQMNSLKPEDTAVYYCAKRSYYWEYYYWGQGTQVTVSA | high polyreactivity |
| QVQLVESGGGLVQAGGSLRLSCAASGSISGYYAMGWYRQAPGKESELVASIRYTGARTYYADSVKGRFTISRDNAKNTVYLQMNSLKPEDTAVYYCAADVKRDRVWGGDYWGQGTQVTVSS | low polyreactivity |
| QVQLVESGGGLVQAGGSLRISCASSVRTFAWNAMGWYRQAPGKERELVAVITSGVSTNYADSVKGRFTISRDNANNTVYLQMNSLKPEDTAVYYCAARSWVYSVIGDNWGLGTQVTVSS | low polyreactivity |
| QVQLVESGGGLVQAGGSLRLSCAASGRTFRYYTMGWYRQAPGKERQFVAAISSTGGTYYADSVKGRFTISRDNAKNTVYLQMNSLKPADTAVYYCAATFIQVVVNVQLYDYDYWGQGTQVTVSS | low polyreactivity |
| QVQLVESGGGLVQAGGSPRLSCAASGRIFGAYAMGWYRQAPGQERELVAGNRSVGSTNYADSVKGRFTISRDNAKNTVYFQMNSLKPEDTAVYYCAARLWHLSYAGQGGDYWGQGTQVTVSS | low polyreactivity |

| Sequence | polyreactivity (PSR sort gate) |
| --- | --- |
| QVQLVESGGGLVQAGGSLRLICAASGRIFRANARGWYRQAPGKERELVATIRNSGGITYYADSVKGRFTISRDHAKNTVYLQMNSLKPEDTALYYCGNLGRYCYDYWGQGTQVTVSS | high polyreactivity |
| QVQLVESGGGLVQAGGSLRLSCAASGRTFGIYAMGWYRQAPGKERELVAAITGRGGSTHYADSVKGRFTISRDNAKNTVYLQMNSLKPEDTAVYYCNARWWVIRPYQRHDYWGQGTQVTVSS | low polyreactivity |
| QVQHVESRGGLVQAGGSLRLSCAASGRIFTGYAMGWYRQAPGKERELVAAITASGGNTYYADSVKGRFTISRVNAKNTVYLQMNSLTPEDTAVFYCAADFYYYKIQYAYWGQGTQVTVSS | low polyreactivity |
| QVQLVESGGGLVQAGGSLRLSCAASGSIFLYNAMGWYRQAPGKERELVAGITFIGGSTYYADSVKGRFTISRDNAKNTVYLQMNSLKPEDTAVYYCNADVAPGIFYGYDSWGQGTQVTVSS | low polyreactivity |
| QVQLVESGGGLVQAGGSLRLSCAASGRIFGRYAMGWYRQAPGQERELVAGISARGGSTYYADSVKGRFTISRDNAKNTVYLQMNSLKPDDTAVYYCAAYAGFSDQAGYFYWGQGTQVTVSS | high polyreactivity |
| QVQLVESGGGLVQAGGSLRLSCAASGRIFFYNAMGWYRQAPGKERELVAAIDSGSSTYYADSVKGRFTISRDNAKNTVYLQMTSLKPEDTAVYYCAADGRRWYTEYDYWGQGTQVTVSS | low polyreactivity |
| QVQLVESGGGLVQAGGSLRLSCAASGSIFYSYAMGWYRQAPGKERELVAAISYRGGSTYYADSVKGRFTISRDNAKNTVYLQMNSLKPEDTAVYYCAADARQSRYNYWGQGTQVTVSS | high polyreactivity |
| QVQLVESGGGLVQAGGSLRLSCAASGITFADNSMGWYRQAPGKERELVAAISRGGSTYYADSVKGRFTISRDNAKNTVYLQMNSLKPEDTAVYYCAAAGWWRAWGSYLRFYGYDYWGQGTQVTVSS | low polyreactivity |
| QVQLVESGGGLDQAGGSLRLSCASSGRIFRYNARGWYRQAPGKERELVAAITSGTGTNYADSVKGRFTISRDNAKNTVYLQMNRLTPEETAVYYCAVDYGYWRDSMGLGVFDYWGQGTQVTVSS | low polyreactivity |
| QVQLVESGGGLVQAGGSLRLSCAASGSIFIYYAMGWYRHAPGKERELDAAISNGGSTNYADSVKGRFTISRDNGKNTVYLQLNRLKPEDTAVYYCNARLERTPSLYLYGSWGQGTQVTVSS | low polyreactivity |
| QVQLVESGGGLVQAGGSLRLSCAASGRTFYSYVMGWYRQAPGKERELVAAISGRGVSTYYADSVKGRFTISRDNAKNTVYLQMNSLKPEDTAVYYCAAETVHGSADFDYWGQGTQVTVSS | low polyreactivity |
| QVQLVDSGGGLVQAGGSLRLSCAASGITFGNYAMGWYRQAPGKERELVASISWNVGSTYYADSVKGRFTISRDNAKNTVYLQMNSLKPEDTAVYYCARGYDRPRVATFHRFDYWGQGTQVTVSS | low polyreactivity |
| QVQLLETGGGLVQAGGSLRLSCAPSGSTFYYYAMGWYRQAPGKEWELVAAISWSGVSTYYADSVKGRFTISRDNAKTTVYLQMNSLKPEDNAVYYCNADSYTLYGRYDYWGQGTQVTVSS | low polyreactivity |
| QVQLVESGGGLVQAGGSLRLSFAASGRTFGGYTMGWYRQAPGKERELVAAITWNGGRTYYADSVKGRFTISRDNAKNTVYLQMNILKPEDTAVYFCAVRIRLRRARLSYDYWGQGTQVTVSS | high polyreactivity |
| QVQLVESGGGLVQAGGSLRLSCAASGSIFVYYVMGWYRQAPGKERELVAAISSGGRTYYADSVKGRFTISRDNAKNTVYLQMNSLKPEDTAVYYCAARPIRPASEVNYWGQGTQVTVSS | low polyreactivity |
| QVQLVESGGGLVQEGGSLSLSCAASGLTFTGNAMAWYRQAPGKEREFVAAIRWSAGSTYYADSVKGRFTISRDNAKNTVYLQMNSLKPEDTAVYYCYAALNVSGHYPNDYCGQGTQVTVSS | low polyreactivity |
| QVQLVESGGGLVQAGGSLRLSCAASGLTFSYYAMGWYRQAPGKERELVAASSWSGGSTYYADSVKGRFTISRDNAKNTVYLQMNSLKPDDTAVYYCAKYPNRHYWYDYWGQGTQVTVSS | low polyreactivity |
| QVQIVESGGGLVQAGGSLRLSCAASGSTLSYYGMGWYRQAPGKERELVAAISTGGRTYYADSVKGRFSISRDNATNTVFLQMTSLKPEDTAVYYCNALYVSYVSRYDYWGQGTQVTVSS | high polyreactivity |
| QVQLVESGGGLVQAGGSLRLSCAASGLTFAYNAMGWYRQAPGKARQLVASINWSDSSTYYADSVKGRFTISRDNAKNTVYLQMHSLKPEDTEVYYCAADAYYVGQGYDYGGQGTQVTVSS | low polyreactivity |
| QFQLVESGGGLVQAGASLRLSCAASGSTFVRYAMGWYRQAPGKERDLVAAITWTGGITYYADSVKGRFTISRDNAKNTVYLHMNSLKPEDTAVYYCIAEQKQYEKSYDYWGQGTQVTVSS | low polyreactivity |
| QVQLVESGGGLVQAGGSLRLSCAASGFTFQAYAMGWYRQAPGKERELVAAINFSTGRTYYADSVKGRFTISRDNAKNTVYLQMNSLKPEDTAVYYCAADGSWTRSYDFDYWGQGTQLTVSS | high polyreactivity |
